Assay results taken from paper PMC11040149.

Target: RNA ligase from Palaeococcus pacificus (PpaRnl), wild-type (Palaeococcus pacificus)
Experiment: SEC

“RNA ligase from Palaeococcus pacificus (PpaRnl), wild-type (enzyme)” gave a stoichiometry N of 2.
